T1: IFN-αF (human, UniProt P01568 24-189)
T1 construct: Recombinant, HEK293; also called IFN-α21
T1 chain: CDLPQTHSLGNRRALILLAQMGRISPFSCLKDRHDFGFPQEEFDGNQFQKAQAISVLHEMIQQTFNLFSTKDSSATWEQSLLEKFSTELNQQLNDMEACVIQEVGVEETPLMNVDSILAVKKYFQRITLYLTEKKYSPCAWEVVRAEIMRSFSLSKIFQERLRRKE

B1: IFWM3395 (antibody, IgG1, V domains shown)
VH: EVQLVQSGAEVKKPGESLKISCKGSGYSFTSYWIGWVRQMPGKGLEWMGIIDPSDSDTRYSPSFQGQVTISADKSISTAYLQWSSLKASDTAMYYCARHPGLAWAPDFDYWGQGTLVTVSS
VL: DIQMTQSPSSLSASVGDRVTITCRASQSISKFLNWYQQKPGKAPKLLIYFASSLQSGVPSRFSGSGSGTDFTLTISSLQPEDFATYYCQQSYDFPITFGQGTKVEIK
notes: mAb; IgG1/kappa said of the parent and of selected mAbs; also called IFWB3130
B2: IFWM3371 (antibody, IgG1, V domains shown)
VH: EVQLVQSGAEVKKPGESLKISCKGSGYSFTSYWIGWVRQMPGKGLEWMGIIDPSDSDTAYSPSFQGQVTISADKSISTAYLQWSSLKASDTAMYYCARHPGLNWAPDFDYWGQGTLVTVSS
VL: DIQMTQSPSSLSASVGDRVTITCRASQSIANTNLNWYQQKPGKAPKLLIHWASSLQSGVPSRFSGSGSGTDFTLTISSLQPEDFATYYCQQWYDNPLTFGQGTKVEIK
notes: mAb; IgG1/kappa said of the parent and of selected mAbs; also called IFWB3106
B3: IFWM3398 (antibody, IgG1, V domains shown)
VH: EVQLVQSGAEVKKPGESLKISCKGSGYSFTSYWIGWVRQMPGKGLEWMGIIDPSDSDTRYSPSFQGQVTISADKSISTAYLQWSSLKASDTAMYYCARHPGLAWAPDFDYWGQGTLVTVSS
VL: DIQMTQSPSSLSASVGDRVTITCRASQSINGVLNWYQQKPGKAPKLLIYFASSLQSGVPSRFSGSGSGTDFTLTISSLQPEDFATYYCQQSHDFPLTFGQGTKVEIK
notes: mAb; IgG1/kappa said of the parent and of selected mAbs; also called IFWB3133
B4: IFWM3372 (antibody, IgG1, V domains shown)
VH: EVQLVQSGAEVKKPGESLKISCKGSGYSFTSYWIGWVRQMPGKGLEWMGIIDPSDSDTAYSPSFQGQVTISADKSISTAYLQWSSLKASDTAMYYCARHPGLNWAPDFDYWGQGTLVTVSS
VL: DIQMTQSPSSLSASVGDRVTITCRASQSIDNNNLNWYQQKPGKAPKLLIYAASSLQSGVPSRFSGSGSGTDFTLTISSLQPEDFATYYCQQGYDWPLTFGQGTKVEIK
notes: mAb; IgG1/kappa said of the parent and of selected mAbs; also called IFWB3107
B5: IFWM3370 (antibody, IgG1, V domains shown)
VH: EVQLVQSGAEVKKPGESLKISCKGSGYSFTSYWIGWVRQMPGKGLEWMGIIDPSDSDTAYSPSFQGQVTISADKSISTAYLQWSSLKASDTAMYYCARHPGLNWAPDFDYWGQGTLVTVSS
VL: DIQMTQSPSSLSASVGDRVTITCRASQSIDNSYLNWYQQKPGKAPKLLIYGASSLQSGVPSRFSGSGSGTDFTLTISSLQPEDFATYYCQQGWDWPLTFGQGTKVEIK
notes: mAb; IgG1/kappa said of the parent and of selected mAbs; also called IFWB3105
B6: IFWM3396 (antibody, IgG1, V domains shown)
VH: EVQLVQSGAEVKKPGESLKISCKGSGYSFTSYWIGWVRQMPGKGLEWMGIIDPSDSDTRYSPSFQGQVTISADKSISTAYLQWSSLKASDTAMYYCARHPGLAWAPDFDYWGQGTLVTVSS
VL: DIQMTQSPSSLSASVGDRVTITCRASQSISEYLNWYQQKPGKAPKLLIYFASSLQSGVPSRFSGSGSGTDFTLTISSLQPEDFATYYCQQSHSLPITFGQGTKVEIK
notes: mAb; IgG1/kappa said of the parent and of selected mAbs; also called IFWB3131
B7: IFWM3397 (antibody, IgG1, V domains shown)
VH: EVQLVQSGAEVKKPGESLKISCKGSGYSFTSYWIGWVRQMPGKGLEWMGIIDPSDSDTRYSPSFQGQVTISADKSISTAYLQWSSLKASDTAMYYCARHPGLAWAPDFDYWGQGTLVTVSS
VL: DIQMTQSPSSLSASVGDRVTITCRASQSITGFLNWYQQKPGKAPKLLIYAASSLQSGVPSRFSGSGSGTDFTLTISSLQPEDFATYYCQQSHDFPLTFGQGTKVEIK
notes: mAb; IgG1/kappa said of the parent and of selected mAbs; also called IFWB3132
B8: IFWM3419 (antibody, IgG1, V domains shown)
VH: EVQLVQSGAEVKKPGESLKISCKGSGYSFTSYWIGWVRQMPGKGLEWMGIIDPSDSDTRYSPSFQGQVTISADKSISTAYLQWSSLKASDTAMYYCARHPGLAWAPDFDYWGQGTLVTVSS
VL: DIQMTQSPSSLSASVGDRVTITCRASQSIAGFLNWYQQKPGKAPKLLIYYASSLQSGVPSRFSGSGSGTDFTLTISSLQPEDFATYYCQQSYSIPITFGQGTKVEIK
notes: mAb; IgG1/kappa said of the parent and of selected mAbs; also called IFWB3154
B9: IFWM3420 (antibody, IgG1, V domains shown)
VH: EVQLVQSGAEVKKPGESLKISCKGSGYSFTSYWIGWVRQMPGKGLEWMGIIDPSDSDTAYSPSFQGQVTISADKSISTAYLQWSSLKASDTAMYYCARHPGLNWAPDFDYWGQGTLVTVSS
VL: DIQMTQSPSSLSASVGDRVTITCRASQSIAGFLNWYQQKPGKAPKLLIYYASSLQSGVPSRFSGSGSGTDFTLTISSLQPEDFATYYCQQSYSIPITFGQGTKVEIK
notes: mAb; IgG1/kappa said of the parent and of selected mAbs; also called IFWB3155
B10: IFWM3375 (antibody, IgG1, V domains shown)
VH: EVQLVQSGAEVKKPGESLKISCKGSGYSFTSYWIGWVRQMPGKGLEWMGIIDPSDSDTAYSPSFQGQVTISADKSISTAYLQWSSLKASDTAMYYCARHPGLNWAPDFDYWGQGTLVTVSS
VL: DIQMTQSPSSLSASVGDRVTITCRASQSIRNNYLNWYQQKPGKAPKLLIYAASSLQSGVPSRFSGSGSGTDFTLTISSLQPEDFATYYCQQGYDTPLTFGQGTKVEIK
notes: mAb; IgG1/kappa said of the parent and of selected mAbs; also called IFWB3110
B11: IFWM3403 (antibody, IgG1, V domains shown)
VH: EVQLVQSGAEVKKPGESLKISCKGSGYSFTSYWIGWVRQMPGKGLEWMGIIDPSDSDTRYSPSFQGQVTISADKSISTAYLQWSSLKASDTAMYYCARHPGLAWAPDFDYWGQGTLVTVSS
VL: DIQMTQSPSSLSASVGDRVTITCRASQSIRNSLNWYQQKPGKAPKLLIKWASSLQSGVPSRFSGSGSGTDFTLTISSLQPEDFATYYCQQLYDWPLTFGQGTKVEIK
notes: mAb; IgG1/kappa said of the parent and of selected mAbs; also called IFWB3138
B12: IFWM3418 (antibody, IgG1, V domains shown)
VH: EVQLVQSGAEVKKPGESLKISCKGSGYSFTSYWIGWVRQMPGKGLEWMGIIDPSDSDTRYSPSFQGQVTISADKSISTAYLQWSSLKASDTAMYYCARHPGLNWAPDFDYWGQGTLVTVSS
VL: DIQMTQSPSSLSASVGDRVTITCRASQSIAGFLNWYQQKPGKAPKLLIYYASSLQSGVPSRFSGSGSGTDFTLTISSLQPEDFATYYCQQSYSIPITFGQGTKVEIK
notes: mAb; IgG1/kappa said of the parent and of selected mAbs; also called IFWB3153

What was measured:
Assay in all cases: ProteOn SPR, cell supernatant;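 also: each binding measurement used just a single antigen concentration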
human IFN-ω = molecular target: T2, human IFN-ω (human, UniProt P05000 24-195)
T2 construct: Recombinant, HEK293; also called interferon omega
Source text: (§1) To increase the assay throughput, only one concentration of the individual antigen was used.

IFN-αC = molecular target: T3, IFN-αC (human, UniProt P01566 24-189)
T3 construct: Recombinant, HEK293; also called IFN-α10
Source text: as §1

IFN-αF = molecular target: T1, IFN-αF
Source text: as §1

IFN-αJ1 = molecular target: T4, IFN-αJ1 (human, UniProt P01567 24-189)
T4 construct: Recombinant, HEK293; also called IFN-α7
Source text: as §1

IFN-α4a = molecular target: T5, IFN-α4a (human, UniProt P05014 24-189)
T5 construct: Recombinant, HEK293; also called IFN-αM1
Source text: as §1

IFN-αG = molecular target: T6, IFN-αG (human, UniProt P01569 24-189)
T6 construct: Recombinant, HEK293; also called IFN-α5
Source text: as §1

IFN-αWA = molecular target: T7, IFN-αWA (human, UniProt P05015 24-189)
T7 construct: Recombinant, HEK293; also called IFN-α16
Source text: as §1

Binder	Kd (human IFN-ω)	Kd (IFN-αC)	Kd (IFN-αF)	Kd (IFN-αJ1)	Kd (IFN-α4a)	Kd (IFN-αG)	Kd (IFN-αWA)
B1	0.019 nM	0.116 nM	0.102 nM	0.181 nM	0.279 nM	0.063 nM	0.063 nM
B2	0.018 nM	0.043 nM	0.05 nM	0.125 nM	0.1 nM	0.05 nM	0.064 nM
B3	0.026 nM	0.017 nM	0.017 nM	0.044 nM	0.061 nM	0.022 nM	0.03 nM
B4	0.049 nM	0.094 nM	0.116 nM	0.69 nM	0.432 nM	0.103 nM	0.272 nM
B5	0.01 nM	0.039 nM	0.039 nM	0.225 nM	0.155 nM	0.021 nM	0.041 nM
B6	0.011 nM	0.005 nM	0.007 nM	0.037 nM	0.079 nM	0.061 nM	0.068 nM
B7	0.025 nM	0.027 nM	0.028 nM	0.078 nM	0.119 nM	0.043 nM	0.062 nM
B8	0.086 nM	0.126 nM	0.158 nM	0.399 nM	0.582 nM	0.081 nM	0.193 nM
B9	0.036 nM	0.113 nM	0.118 nM	0.299 nM	0.475 nM	0.037 nM	0.124 nM
B10	0.019 nM	0.022 nM	0.023 nM	0.045 nM	0.067 nM	0.035 nM	0.031 nM
B11	0.007 nM	0.025 nM	0.027 nM	0.059 nM	0.062 nM	0.027 nM	0.023 nM
B12	0.089 nM	0.191 nM	0.229 nM	0.656 nM	1.16 nM	0.178 nM	0.493 nM

From patent US20150368338A1 (Janssen / Centocor, published 2015)
